Laboratory results reported in patent publication US20180230189A1 (INSERM INSTITUT NATIONAL DE LA SANT ET DE LA RECHERCHE …, published 2018).

Molecular target: T1, extracellular domain of the recombinant protein NRP-1 from RnD systems (human, UniProt O14786 22-856)
T1 construct: Bought extracellular domain
Assay: Bio-layer interferometry (BLI), synthetic peptide and recombinant NRP-1 extracellular domain
Method: Ligands preparation: proteins were incubated in a PBS buffer with a 1:3 ratio molar ratio of biotin (biotin-PEG4-NHS from Pierce EZ kit, prepared following the manufacturer's instructions). Free biotin was removed using a desalting column (Pierce). The biotinylated protein (called ligand) was immobilized onto streptavidin biosensor tips and dipped into wells containing the buffer with the analyte of interest (association) or without (dissociation).
From the best consensus mode, peptide sequences SEQ ID NO:3 for leptin and SEQ ID NO:4 for NRP-1 have been identified (FIG. 2). The Leptin (OB) binding domain (SEQ ID:3) to NRP-1 (SEQ ID:2) was validated by BLI using a synthetized peptide (SEQ ID:3) and the extracellular domain of the recombinant protein NRP-1 from RnD systems (FIG. 3).

T1 sequence (O14786 22-856 V179A limits assumed): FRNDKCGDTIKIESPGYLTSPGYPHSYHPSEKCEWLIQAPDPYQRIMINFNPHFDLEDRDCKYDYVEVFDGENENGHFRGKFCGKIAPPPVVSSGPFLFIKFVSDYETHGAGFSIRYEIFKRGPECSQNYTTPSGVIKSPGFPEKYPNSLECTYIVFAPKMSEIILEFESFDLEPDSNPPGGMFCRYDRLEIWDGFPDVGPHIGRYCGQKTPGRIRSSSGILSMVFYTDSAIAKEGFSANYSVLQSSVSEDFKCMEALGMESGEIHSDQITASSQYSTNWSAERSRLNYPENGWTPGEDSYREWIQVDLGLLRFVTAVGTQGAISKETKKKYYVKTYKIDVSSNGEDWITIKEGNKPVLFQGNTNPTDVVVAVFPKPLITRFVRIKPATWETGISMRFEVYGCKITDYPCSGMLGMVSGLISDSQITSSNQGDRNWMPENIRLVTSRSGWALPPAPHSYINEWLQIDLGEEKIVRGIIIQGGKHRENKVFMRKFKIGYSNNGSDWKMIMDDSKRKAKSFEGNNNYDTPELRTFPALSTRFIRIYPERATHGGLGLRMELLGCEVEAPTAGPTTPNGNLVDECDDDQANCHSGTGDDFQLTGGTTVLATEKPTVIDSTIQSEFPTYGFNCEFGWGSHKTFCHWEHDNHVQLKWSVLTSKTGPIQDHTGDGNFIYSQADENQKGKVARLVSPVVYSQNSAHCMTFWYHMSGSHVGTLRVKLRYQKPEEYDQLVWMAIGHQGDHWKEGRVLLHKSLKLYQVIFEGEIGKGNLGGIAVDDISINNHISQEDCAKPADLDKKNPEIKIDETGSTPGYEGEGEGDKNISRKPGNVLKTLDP

B1: synthetized leptin (OB) peptide SEQ ID NO:3 (peptide)
peptide: ENLRDLLHVLAFSKSCHLPWASGLETL
notes: Synthetic peptide derived from leptin, identified by docking and then tested by BLI
B1: binds.
